B1: SEQ ID NO: 4: Segniliparus rugosus carboxylate reductase, N-terminal HIS tagged (protein, listed as Segniliparus rugosus)
chain: MGDGEERAKRFFQRIGELSATDPQFAAAAPDPAVVEAVSDPSLSFTRYLDTLMRGYAERPALAHRVGAGYETISYGELWARVGAIAAAWQADGLAPGDFVATVGFTSPDYVAVDLAAARSGLVSVPLQAGASLAQLVGILEETEPKVLAASASSLEGAVACALAAPSVQRLVVFDLRGPDASESAADERRGALADAEEQLARAGRAVVVETLADLAARGEALPEAPLFEPAEGEDPLALLIYTSGSTGAPKGAMYSQRLVSQLWGRTPVVPGMPNISLHYMPLSHSYGRAVLAGALSAGGTAHFTANSDLSTLFEDIALARPTFLALVPRVCEMLFQESQRGQDVAELRERVLGGRLLVAVCGSAPLSPEMRAFMEEVLGFPLLDGYGSTEALGVMRNGIIQRPPVIDYKLVDVPELGYRTTDKPYPRGELCIRSTSLISGYYKRPEITAEVFDAQGYYKTGDVMAEIAPDHLVYVDRSKNVLKLSQGEFVAVAKLEAAYGTSPYVKQIFVYGNSERSFLLAVVVPNAEVLGARDQEEAKPLIAASLQKIAKEAGLQSYEVPRDFLIETEPFTTQNGLLSEVGKLLRPKLKARYGEALEARYDEIAHGQADELRALRDGAGQRPVVETVVRAAVAISGSEGAEVGPEANFADLGGDSLSALSLANLLHDVFEVEVPVRIIIGPTASLAGIAKHIEAERAGASAPTAASVHGAGATRIRASELTLEKFLPEDLLAAAKGLPAADQVRTVLLTGANGWLGRFLALEQLERLARSGQDGGKLICLVRGKDAAAARRRIEETLGTDPALAARFAELAEGRLEVVPGDVGEPKFGLDDAAWDRLAEEVDVIVHPAALVNHVLPYHQLFGPNVVGTAEIIRLAITAKRKPVTYLSTVAVAAGVEPSSFEEDGDIRAVVPERPLGDGYANGYGNSKWAGEVLLREAHELVGLPVAVFRSDMILAHTRYTGQLNVPDQFTRLVLSLLATGIAPKSFYQQGAAGERQRAHYDGIPVDFTAEAITTLGAEPSWFDGGAGFRSFDVFNPHHDGVGLDEFVDWLIEAGHPISRIDDHKEWFARFETAVRGLPEAQRQHSLLPLLRAYSFPHPPVDGSVYPTGKFQGAVKAAQVGSDHDVPHLGKALIVKYADDLKALGLL
modifications: N-terminal His tag
notes: Segniliparus rugosus carboxylate reductase, N-terminal HIS tagged
B2: SEQ ID NO: 6: Segniliparus rotundus carboxylate reductase, N-terminal HIS tagged (protein, listed as Segniliparus rotundus)
chain: MTQSHTQGPQASAAHSRLARRAAELLATDPQAAATLPDPEVVRQATRPGLRLAERVDAILSGYADRPALGQRSFQTVKDPITGRSSVELLPTFDTITYRELRERATAIASDLAHHPQAPAKPGDFLASIGFISVDYVAIDIAGVFAGLTAVPLQTGATLATLTAITAETAPTLFAASIEHLPTAVDAVLATPSVRRLLVFDYRAGSDEDREAVEAAKRKIADAGSSVLVDVLDEVIARGKSAPKAPLPPATDAGDDSLSLLIYTSGSTGTPKGAMYPERNVAHFWGGVWAAAFDEDAAPPVPAINITFLPLSHVASRLSLMPTLARGGLMHFVAKSDLSTLFEDLKLARPTNLFLVPRVVEMLYQHYQSELDRRGVQDGTREAEAVKDDLRTGLLGGRILTAGFGSAPLSAELAGFIESLLQIHLVDGYGSTEAGPVWRDGYLVKPPVTDYKLIDVPELGYFSTDSPHPRGELAIKTQTILPGYYKRPETTAEVFDEDGFYLTGDVVAQIGPEQFAYVDRRKNVLKLSQGEFVTLAKLEAAYSSSPLVRQLFVYGSSERSYLLAVIVPTPDALKKFGVGEAAKAALGESLQKIARDEGLQSYEVPRDFIIETDPFTVENGLLSDARKSLRPKLKEHYGERLEAMYKELADGQANELRDIRRGVQQRPTLETVRRAAAAMLGASAAEIKPDAHFTDLGGDSLSALTFSNFLHDLFEVDVPVGVIVSAANTLGSVAEHIDAQLAGGRARPTFATVHGKGSTTIKASDLTLDKFIDEQTLEAAKHLPKPADPPRTVLLTGANGWLGRFLALEWLERLAPAGGKLITIVRGKDAAQAKARLDAAYESGDPKLAGHYQDLAATTLEVLAGDFSEPRLGLDEATWNRLADEVDFISHPGALVNHVLPYNQLFGPNVAGVAEIIKLAITTRIKPVTYLSTVAVAAGVEPSALDEDGDIRTVSAERSVDEGYANGYGNSKWGGEVLLREAHDRTGLPVRVFRSDMILAHQKYTGQVNATDQFTRLVQSLLATGLAPKSFYELDAQGNRQRAHYDGIPVDFTAESITTLGGDGLEGYRSYNVFNPHRDGVGLDEFVDWLIEAGHPITRIDDYDQWLSRFETSLRGLPESKRQASVLPLLHAFARPGPAVDGSPFRNTVFRTDVQKAKIGAEHDIPHLGKALVLKYADDIKQLGLL
modifications: N-terminal His tag
notes: Segniliparus rotundus carboxylate reductase, N-terminal HIS tagged

How the values were obtained:
Type in all cases: biochemical
[1] = carboxylate reductase enzyme activity assay (pimelate to pimelate semialdehyde), NADPH consumption at 340 nm; conditions: purified enzyme enhanced by gene product of sfp; 2 mM pimelate, 1 mM ATP, 1 mM NADPH, pH 7.5, room temperature, 20 min; FIG. 8
Method: A nucleotide sequence encoding a HIS-tag was added to the nucleic acid sequences from Segniliparus rugosus and Segniliparus rotundus that encode the carboxylate reductases of SEQ ID NOs: 4 (EFV11917.1) and 6 (ADG98140.1), respectively (see FIG. 6C and FIG. 6E), such that N-terminal HIS tagged carboxylate reductases could be produced. Each of the modified genes was cloned into a pET Duet expression vector along with a sfp gene encoding a HIS-tagged phosphopantetheine transferase from Bacillus subtilis, both under the T7 promoter. Each expression vector was transformed into a BL21[DE3] E. coli host and the resulting recombinant E. coli strains were cultivated at 37° C. in a 250 mL shake flask culture containing 50 mL LB media and antibiotic selection pressure, with shaking at 230 rpm. Each culture was induced overnight at 37° C. using an auto-induction media.
The pellet from each induced shake flask culture was harvested via centrifugation. Each pellet was resuspended and lysed via sonication, and the cell debris was separated from the supernatant via centrifugation. […]
Enzyme activity assays (i.e., from pimelate to pimelate semialdehyde) were performed in triplicate in a buffer composed of a final concentration of 50 mM HEPES buffer (pH=7.5), 2 mM pimelate, 10 mM MgCl2, 1 mM ATP, and 1 mM NADPH. […] The consumption of NADPH was monitored by absorbance at 340 nm. […]

[2] = carboxylate reductase enzyme activity assay (N7-acetyl-7-aminoheptanoate to N7-acetyl-7-aminoheptanal), NADPH consumption at 340 nm; conditions: purified enzyme enhanced by gene product of sfp; 2 mM N7-acetyl-7-aminoheptanoate, 1 mM ATP, 1 mM NADPH, pH 7.5, room temperature, 20 min; FIG. 10
Method: The activity of each of the N-terminal His-tagged carboxylate reductases of SEQ ID NOs: 3, 5, and 6 (see Examples 2 and 3, and FIG. 6B, FIGS. 6D-6E) for converting N7-acetyl-7-aminoheptanoate to N7-acetyl-7-aminoheptanal was assayed in triplicate in a buffer composed of a final concentration of 50 mM HEPES buffer (pH=7.5), 2 mM N7-acetyl-7-aminoheptanoate, 10 mM MgCl2, 1 mM ATP, and 1 mM NADPH. The assays were initiated by adding purified carboxylate reductase and phosphopantetheine transferase or the empty vector control to the assay buffer containing the N7-acetyl-7-aminoheptanoate then incubated at room temperature for 20 min. The consumption of NADPH was monitored by absorbance at 340 nm.

[3] = carboxylate reductase enzyme activity assay (pimelate semialdehyde to heptanedial), NADPH consumption at 340 nm; conditions: purified enzyme enhanced by gene product of sfp; 2 mM pimelate semialdehyde, 1 mM ATP, 1 mM NADPH, pH 7.5, room temperature, 20 min; FIG. 11
Method: The N-terminal His-tagged carboxylate reductase of SEQ ID NO: 6 (see Example 3 and FIG. 6E) was assayed using pimelate semialdehyde as substrate. The enzyme activity assay was performed in triplicate in a buffer composed of a final concentration of 50 mM HEPES buffer (pH=7.5), 2 mM pimelate semialdehyde, 10 mM MgCl2, 1 mM ATP, and 1 mM NADPH. The enzyme activity assay reaction was initiated by adding purified carboxylate reductase and phosphopantetheine transferase or the empty vector control to the assay buffer containing the pimelate semialdehyde and then incubated at room temperature for 20 min. The consumption of NADPH was monitored by absorbance at 340 nm.

| Molecule | acceptance of pimelate as substrate (NADPH consumption), confirmed against the empty vector control [1] | acceptance of N7-acetyl-7-aminoheptanoate as substrate (NADPH consumption), confirmed against the empty vector control [2] | acceptance of pimelate semialdehyde as substrate (NADPH consumption), confirmed against the empty vector control [3] |
| --- | --- | --- | --- |
| B1 | accepted pimelate as substrate |  |  |
| B2 | accepted pimelate as substrate | accepted N7-acetyl-7-aminoheptanoate as substrate | accepted pimelate semialdehyde as substrate |

From US10920254B2, “Methods and materials for producing 5 and 7-carbon monomers” (INVISTA North America S.á.r.l., priority 2015, dated 2021)
